This series in a line: soluble on expression in E. coli; label from the status in PepcDB or PDB records.
Consider “MTNISIPGNWQTCDVEAMDGDFDDNMLQFLGSFEEVLPEGVEVETKKGMKKKNKPKKVENTERPEEDAKCVEERRLAKKLRRKEQMAANRKQKKERLAKRKQKEAESSAKKSENATETTTEKPKEQKKRKGGENGDTGKPKKSKKEASKKTDISAWKQFYFLPNEVLEAIEQMGFSEPTEIQSAVLPAAVRDRQDVLGAAETGSGKTLAFGIPLVARLLESSDDSQETESTEVRGPRALIVAPTRELVIQIMKHINALISTTQLIATSIVGGLAQVKQERIISQQRPDIVVATPGRLWAMMQEAETGEFLAEWKDLKCLVVDETDRMVEEGYFAELTHILNKIHEESEKEKLQTLVFSATLTFAKAQDVAEEEKKKAKELSSQQKIQRLIKLTGLRENKHKVIDLTRQMGTAGCLVEARINCGNLLEKDTSLVYLLTRYPGRTIVFVNSIDAARRLYSVLKSVNIDPMILHAKMIQKQRLKNLEKFSESKNAVLLATDVAARGLDIQGIDHVIHYQVPKKVEIYIHRSGRTARASHRGLTVVLVDPPSRQFYMKLCKGLNRMQDLNVFPIDFEPLMNAIKKRVRLASEIDSLGFRCKKIKMSESWFEKAARAADLDYDETRHREMDGLNLEVDTMVQKSRQLQAQLRTELSLPLPRVDGSDSMKTKYITPEIVARLRSVGDNAIDVLNQKIDETKEWKRKSRKATREDEMNSMKKSLKSSQKNKERLAEKKKKEKAAKVTKLSETD”, for which the “soluble on expression in E. coli” value was “not soluble”.

In the case of “MGSDKIHHHHHHMLKIGPIEMKNQVVLAPMAGVCNPAFRLIAKEFGAGLVCAEMVSDKAILHKNEKSLSMLYVDEREKPLSLQIFGGEKETLVEAAKFVDKNTNADIIDINMGCPVPKITKCDAGARWLLDPNKIYDMVSAVVDEVDKPVTVKMRIGWDEEHIYAVENAQAVERAGGAAVAVHGRTRVQMYEGTADWNIIREVKQAVGIPVIGNGDVKTPQDAKRMLDEIGVDGVMIGRAALGNPWMLYRTIHYLETGELLPDPTPREKMDVCMIHLDRLIKLKGENVAVREMRKHAAWYLKGLRGNGKIRDQINQFETREDVSSTLYAYIEELEAKMAEKSASVV”, the “soluble on expression in E. coli” value is on record as “not soluble”. Regarding “MTAPRYPRDMIGYGATPPNANWPGNARIAVQIVLNYEEGGENNILHGDAASEAFLSEIVGAAPWPGQRHWNMETIYEYGARAGFWRLHRLMRDLPVTVYGVATALARSPDQVAAMKSAGWEIASHGLKWVEHKDMPEEEERAQIAEAIRLHTEVTGSRPRGWYTGRCSMNTVRLASEAGIDYIADTYDDDLPYWKRIDGRDQLIVPYTLDCNDMRFATPQGFNSGDQFFAYLKDSFDALYAEGGEGAPKMLSIGLHCRLIGRPGRVMALKRFLDYARGHEDVWFATRLQIAEHWVREHPPVARTRPSEMPKADFVAAYGGIFEHSPWIAERAHGLELGPAHDTAGGLHNALCRMFRSASAEERLGVLTAHPDLAGKLAQAKRLTAESTSEQASAGLDALTDEERTTFTRLNTEYVARFGFPFIIAVRDHDKASILAAFQRRIGNDRETEFAEACRQVERIAEFRLRDVLPSLEHHHHHH”, the “soluble on expression in E. coli” value was “soluble”.

“SPFDTGPELESQIRNQYGVDVHVVPVLDTLNEAETLDRVAMQAARTIGPLVDSNAIIGVAWGATLSAVSRHLTRKMTHDSIVVQLNGAGNMQTTGITYASDIMRRFGSAYGARVEQFPVPAFFDHASTKTAMWNERSVQRILDLQARMSIAIFGVGSVDSDYPSHVYAGGYLDEHDLTMLAADDVVGDVATVFFRSDGSSDGITLNERSTGPSHEQLRQVRRRICVVSGASKINGLQGALAAGLATDLILDEASARRLVSFNGHS”: the “soluble on expression in E. coli” value is given as “soluble”.

Consider “MHVFYSEERRGNLLILREGEVKHFRVRRIEKDEEFGVIHEGKIYVCKVRREDKREISCEIVEELETKLPPKDITLYQSVTVDLKTMDTIVRQATELGVLTFVPIISERSFQKEEAILKKTEKWKRIVIEAMKQSRRPIPMEIKKPVRLSDLIPESEENIILDNFYEGVKPKDVNLEAKTYSVVVGPEGGFSKRESQILREKGFKSVLLEPYTLRTETAVVSIVSILMNFLEHHHHHH”, for which the “soluble on expression in E. coli” value was “soluble”.

As for “MGSDKIHHHHHHMDFYQVIKTRTSTKKFKNTPIAAPKLDNMLNAAMMSPSWKNKTSYSFVIVDDERKKDAIANFIINSDEDAKNSVKDAPMVVAIVGDTTESGHINGKEYYLVDSAIAMEHFVLAAANEGYGTCWIASFDEKRMKDELRIPDKYSVVAITPVGEVGESKAHYEPKDIENHIYRNYWSMPYSEKKHLVMK”, the “soluble on expression in E. coli” value is “not soluble”. As to “MYIDKDDFTAWMERIMDRFDMQDKKIDRVIKGRNCLDGEELLDNQDLCLLLKVAPRTLTRYRKKGILPFLMLDGRCYYRATDVHKLIREKTD”, the “soluble on expression in E. coli” value was “not soluble”. For the sequence “LFNYKEGDSFFIRGPYGNGFDVSLYEGREIVVVAGGSALAPVRGIVEYFYNNKEKCEKFKLIVGFKSPKDILFADDLKRWSKKLDILVTVDGAEEGYSGNVGLVTKYIPELDMKDINNTSIVVVGPPMMMKFTVEEFLKRDLDEKNIWV”, the “soluble on expression in E. coli” value was “not soluble”. In the case of “MGSDKIHHHHHHMITFIGHVSKDVNVVDGKREIAYGGGVVMGAITSSLLGVKTKVITKCTREDVSKFSFLRDNGVEVVFLKSPRTTSIENRYGSDPDTRESFLISAADPFTESDLAFIEGEAVHINPLWYGEFPEDLIPVLRRKVMFLSADAQGFVRVPENEKLVYRDWEMKEKYLKYLDLFKVDSREAETLTGTNDLRESCRIIRSFGAKIILATHASGVIVFDGNFYEASFRSWSLEGRTGRGDTCTAAFLVGFVFKKMSIEKATKFAAAVTSVKMRHPGPLRREDLEAISGDQYF”, the “soluble on expression in E. coli” value is given as “soluble”. For the sequence “GTKQKMRTVFSQAQLCALKDRFQKQKYLSLQQMQELSSILNLSYKQVKTWFQNQRMKCKRWQ”, the “soluble on expression in E. coli” value is recorded as “soluble”.

With “MDMHSGTFNPQDFAWQGLTLTPAAAIHIRELVAKQPGMVGVRLGVKQTGCAGFGYVLDSVSEPDKDDLLFEHDGAKLFVPLQAMPFIDGTEVDFVREGLNQIFKFHNPKAQNECGCGESFGV”, the “soluble on expression in E. coli” value is listed as “not soluble”. In the case of “MSLIRDRTEPVMSAKLPPVEPVSPTNPRSSASPGSPDRSGLPVVVSVVGLVHTPGLVTLAPGARIADALQAAGGAVDGADTVGLNMARQLGDGEQIVVGLAPPSGQPRVLGSSVGAGTPGPAGTSGTATTGPKTAPKTAEVLDLNTATVEQLDALPGIGPVTAAAIVAWRQRNGRFTSVDQLADVDGIGPARLDKRRNLVRVEGHHHHHH”, the “soluble on expression in E. coli” value is listed as “soluble”. Under “MKDPKAPIGVFDSGVGGLTVLKALRRLLPREEFLYFGDTARVPYGGKPLAMVRRFAWEIAGFLLRQGVKAIVVACNTASSAALPDLAEDLSVPVFGVVEPVARAVRGFRKVGLIGTQATVESGAYPRYVDLACAKACPLFVPLVEEGLWDDPVALLVARHYLEDAPKDLEALILGCTHYPFLKGAIGAVLPGVALLDSAELTAQEVARALEAEGLLNPEGRGRTFHLVTGDPEAYRALAERLGERVEAVRRVSLEEL” stands “soluble”; under “MGSDKIHHHHHHMLLMPTKDWRWEFNEEYGQLALSLDTQMSFLTAYKTKMLIPDALKGMKFSVEHAKFYIRMLERLPQLLTLSDAMIVQTALNATAAHFLLKPQMPKSWFFDVSDECVYFDLGKVFQLKNNQQSMLVLVVEVGLQSVLVMNLSAACQLSDNKSLGQFDTIKVMHDRLHPLSRAKQIVAA”, “not soluble”; under “MNLITDETLVEPNLPTFEELTRVHDRKYLKSVRNPIKAAQIVEIPFVGCLPPCIIESKLLHPLRLQAGGTVLAANLALKHGWAINVGGGFHHASHSGGGGFCFYADITMAIFDLFDKKAIANAIVVDLDAHQVLEKTFERI”, “not soluble”. With “MGSDKIHHHHHHMRNPDIGIDDLTALFIADTPLIDVRAPVEFTQGSLPGAVNLPILNDEERALVGTTYKQQGSEAAIKLGYEMVSGSVKQNRLQQWLDFIHQHPRAILYCFRGGKRSQITQQWLRDTGIDSPLITGGYKRARQFLISTIDRFSEHRKLLVITGPTGSGKTRLIHDISNSHPVLDIEALARHRGSAFGGMSVPQPSQIDFENHLAVNLLKLEQNNLSEPVIVEDESRHTGKVYLPDSFFHHLRNSEIIWVDEPLATRVDNIFEDYILTTPIGQAQRIRQAIPPLASTVETREILRQQARQLFDKYAGALQAISKKLGGDRFQEVSEDLENARSDFENKNEIQSNKIWIEKLVRYYYDPLYLGSLQRRRVNPCFKGSGQAVMDYLQARK”, the “soluble on expression in E. coli” value is “not soluble”. Regarding “MTPSVAQNTKYVNLFIGTSGDNGQVAPGAAAPFGMVCVCPDNDPRSHAGYDYAVTKVSGISVNRLSGVGCSGGGGNLRIRPVAPSQELHIKKSREKATPGYYSTAFTNGIKTELTATNAMAVERYKFPRSLSAALWIDFASTFEDVATCHYKRISETCIEGYVQAKNVCGHGCYKLYFSLNTSQPLEHHHHHH”, the “soluble on expression in E. coli” value is “not soluble”. Regarding “MQRTGELPAEHVPVILESSGAGDFHLIDSGNGLKLEQYGDYRVVRPEAQALWRPLVPDRVWQNADAIFTGDTDEDGMGRWRFPKEALGETWPLSLLGVEFLGRFTAFRHVGVFPEQIVHWEWLKNAVETADRPLKVLNLFGYTGVASLVAAAAGAEVTHVDASKKAIGWAKENQVLAGLEQAPIRWICEDAMKFIQREERRGSTYDIILTDPPKFGRGTHGEVWQLFDHLPLMLDICREILSPKALGLVLTAYSIRASFYSMHELMRETMRGAGGVVASGELVIREAGLDGKTPGRVLSTSLFSRWEPK”, the “soluble on expression in E. coli” value is on record as “soluble”.

Consider “MSTSTLQSEQSMEIITPPADIGTRTLVDKAAQFVSKKGLEFETKIIDSYPTDAKFNFLRSTADPCHTYYKHKLAEYSSQNQDGATDESDIKIFHAPPNVTTTAIVETTSCLVSQFGSEFEMMVKDSNTDDARFNFLKSSEDPYNVLYKQKLDEYSLDPRDAYYQHKLAESISKYHREATPKLVLPNLLQFRLVKEMTFEELDTVKVTAQFVAWYGDDFRGFLMERVMTEPQFEFMKATDYRFSFYNEFVVAYSQVLNPPKYLKDKLRGRAAYTVIGHLLITMSEEEIS”, for which the “soluble on expression in E. coli” value was “soluble”. The entry for “MGHHHHHHSHMATSRYEPVAEIGVGAYGTVYKARDPHSGHFVALKSVRVPNGGGGGGGLPISTVREVALLRRLEAFEHPNVVRLMDVCATSRTDREIKVTLVFEHVDQDLRTYLDKAPPPGLPAETIKDLMRQFLRGLDFLHANCIVHRDLKPENILVTSGGTVKLADFGLARIYSYQMALTPVVVTLWYRAPEVLLQSTYATPVDMWSVGCIFAEMFRRKPLFCGNSEADQLGKIFDLIGLPPEDDWPRDVSLPRGAFPPRGPRPVQSVVPEMEESGAQLLLEMLTFNPHKRISAFRALQHSYLHKDEGNPE” is “not soluble”; for “MRKLAAFLGLVGLLSLGLAQSAQEILDRVEKNLSTPWQATVQGRIQGPGGEEELLARVYALPQARLFRVEFLKPGSLEGNFTVITEKEVWNYLYLTNQLVISPREKAKIQGLGFAPQGLGDLKALSEQVDLRLEGEVRLPEGMAWKLVGRSKENQGFAAMELYILKADPRPLRFVFLDEKGKVLADLKVVEFKRTNLTEAQLKRYPKDAQVVRR” it is “soluble”. Consider “MGSDKIHHHHHHMSVAEPNSHTQRNQPRPIRVGVIGVGNMGQHHTRVLSSMKDVELVGVSDINVERGLETASKYKVRFFEDYCDLLPHVEAVCIAVPTRLHYAVGINCLLAGIHVLIEKPIAASISEAESLVNAAAESQCILQVGHIERFNPAFRELSKVMKTEEVLALEAHRMSPYSDRANDVSVVLDLMIHDIDLLLELAASPVTKLTASGTRALDSGYLDYVTATLGFANGIVATLTASKVTHRKIRRIVAHCKNSFTEADFLKNEILIHRQTSASPVNDHRHYRQDGLIEKVYTTNIQPLSAELEHFVNCVHGGNQPSVGGEQALKALRLASLIEQMALEERVWNPLDWQSESRVQSLTQSV”, for which the “soluble on expression in E. coli” value is reported as “not soluble”.

These data come from the DeepSol protein solubility set.
